Positions count from the first letter of the chain named.
T1: SLFN5 1-336 (Schlafen core domain) (Homo sapiens, UniProt Q08AF3 1-336)
T1 sequence: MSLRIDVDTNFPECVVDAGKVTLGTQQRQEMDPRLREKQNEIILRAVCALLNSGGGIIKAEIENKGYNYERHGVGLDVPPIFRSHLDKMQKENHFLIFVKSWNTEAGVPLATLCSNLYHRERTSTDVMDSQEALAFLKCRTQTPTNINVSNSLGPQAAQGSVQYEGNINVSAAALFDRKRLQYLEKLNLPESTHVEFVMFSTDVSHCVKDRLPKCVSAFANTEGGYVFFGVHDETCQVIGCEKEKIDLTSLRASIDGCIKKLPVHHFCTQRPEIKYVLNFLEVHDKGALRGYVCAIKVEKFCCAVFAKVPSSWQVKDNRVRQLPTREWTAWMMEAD

T2: SLFN5 full length (Homo sapiens, UniProt Q08AF3 1-891)
T2 sequence: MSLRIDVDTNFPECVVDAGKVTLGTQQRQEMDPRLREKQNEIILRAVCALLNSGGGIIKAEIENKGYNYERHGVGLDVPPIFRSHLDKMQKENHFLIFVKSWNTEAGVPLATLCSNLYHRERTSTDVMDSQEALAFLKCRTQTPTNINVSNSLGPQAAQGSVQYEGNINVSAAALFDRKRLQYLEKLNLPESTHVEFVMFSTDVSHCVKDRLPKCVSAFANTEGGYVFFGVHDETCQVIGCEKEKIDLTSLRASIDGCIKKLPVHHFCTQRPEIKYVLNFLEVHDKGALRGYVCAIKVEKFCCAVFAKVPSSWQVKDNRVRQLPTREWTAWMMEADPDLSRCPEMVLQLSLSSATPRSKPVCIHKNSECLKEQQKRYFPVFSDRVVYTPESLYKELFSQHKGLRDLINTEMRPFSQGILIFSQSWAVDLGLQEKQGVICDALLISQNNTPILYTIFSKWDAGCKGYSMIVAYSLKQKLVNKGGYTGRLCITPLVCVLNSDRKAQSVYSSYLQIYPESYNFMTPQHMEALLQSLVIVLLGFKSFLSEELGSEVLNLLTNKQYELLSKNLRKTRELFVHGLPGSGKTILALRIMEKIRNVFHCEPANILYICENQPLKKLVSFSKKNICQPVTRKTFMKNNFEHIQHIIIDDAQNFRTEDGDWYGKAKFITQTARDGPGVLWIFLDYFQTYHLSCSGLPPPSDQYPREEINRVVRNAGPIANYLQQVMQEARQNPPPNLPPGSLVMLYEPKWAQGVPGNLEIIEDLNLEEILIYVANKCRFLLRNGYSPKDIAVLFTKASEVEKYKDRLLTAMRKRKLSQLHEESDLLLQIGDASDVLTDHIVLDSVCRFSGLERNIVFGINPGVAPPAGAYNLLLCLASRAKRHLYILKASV

B1: tRNA(Ser) (structured_RNA)
RNA: GUAGUCGUGGCCGAGUGGUUAAGGCGAUGGACUUGAAAUCCAUUGUGGUUUCCCCGCGCAGGUUCGAAUCCUGCCGACUACGCCA
B2: 60 dT (ssDNA)
DNA: TTTTTTTTTTTTTTTTTTTTTTTTTTTTTTTTTTTTTTTTTTTTTTTTTTTTTTTTTTTT
B3: 60 bp DNA (60bp_A/T_GC) (dsDNA)
DNA 1: B2 DNA with T50G, T51C
DNA 2: AAAAAAAAAGCAAAAAAAAAAAAAAAAAAAAAAAAAAAAAAAAAAAAAAAAAAAAAAAAA
B4: 196 bp DNA (0N49) (dsDNA)
DNA 1: CTGGAGAATCCCGGTGCCGAGGCCGCTCAATTGGTCGTAGCAAGCTCTAGCACCGCTTAAACGCACGTACGCGCTGTCCCCCGCGTTTTAACCGCCAAGGGGATTACTCCCTAGTCTCCAGGCACGTGTCAGATATATACATCCTGTGCATGTATTGAACAGCGACCTTGCCGGTGCCAGTCGGATAGTGTTCCGA
DNA 2: TCGGAACACTATCCGACTGGCACCGGCAAGGTCGCTGTTCAATACATGCACAGGATGTATATATCTGACACGTGCCTGGAGACTAGGGAGTAATCCCCTTGGCGGTTAAAACGCGGGGGACAGCGCGTACGTGCGTTTAAGCGGTGCTAGAGCTTGCTACGACCAATTGAGCGGCCTCGGCACCGGGATTCTCCAG
B5: 50 bp DNA (dsDNA)
DNA 1: AATTGGTCGTAGCAAGCTCTAGCACCGCTTAAACGCACGTACGCGCTGTC
DNA 2: GACAGCGCGTACGTGCGTTTAAGCGGTGCTAGAGCTTGCTACGACCAATT
B6: 60 rU (ssRNA)
RNA: UUUUUUUUUGCUUUUUUUUUUUUUUUUUUUUUUUUUUUUUUUUUUUUUUUUUUUUUUUUU

What was measured:
[1] = target: T1, SLFN5 1-336 (Schlafen core domain); assay: fluorescence anisotropy; FA: 2x buffer 100 mM HEPES pH 8.0, 100 mM NaCl mixed 1:1 with 100 nM (final) FAM ligand, 30 min on ice; EMSA: 25 mM HEPES pH 7.0, 60 mM NaCl, 5% glycerol, 2 mM; settings: protein: recombinant, tags: C-terminal His6
SLFN5 full length [2] = target: T2, SLFN5 full length; assay: competition EMSA; with tRNASer, 20 nM each; 196 bp DNA preferred; FA: 2x buffer 100 mM HEPES pH 8.0, 100 mM NaCl mixed 1:1 with 100 nM (final) FAM ligand, 30 min on ice; EMSA: 25 mM HEPES pH 7.0, 60 mM NaCl, 5% glycerol, 2 mM; settings: protein: recombinant; tags: N-terminal double FLAG, HRV 3C site; label: 5'-Cy5 (rev primer); blunt
SLFN5 full length [3] = target: T2, SLFN5 full length; assay: competition EMSA; with tRNASer, 20 nM each; comparable affinities; FA: 2x buffer 100 mM HEPES pH 8.0, 100 mM NaCl mixed 1:1 with 100 nM (final) FAM ligand, 30 min on ice; EMSA: 25 mM HEPES pH 7.0, 60 mM NaCl, 5% glycerol, 2 mM; settings: protein: recombinant; tags: N-terminal double FLAG, HRV 3C site; label: 5'-Cy5 (fwd); blunt

Binder	Kd ([1]; label: 5'-FAM) [µM]	also measured
UUUUUUUUUUUUUUUUUUUUUUUUUUUUUU (ssRNA) [30 rU]	5.1	–
B1	–	Kd ([1]; label: 5'-FAM, tRNA fold): 4.3 µM
B2	7.8	–
B3	–	Kd ([1]; label: 5'-FAM (fwd), blunt): 2.5 µM
B4	–	binding result (SLFN5 full length [2]): binds
B5	–	binding result (SLFN5 full length [3]): binds
B6	3.6	–
TTTTTTTTTTTTTTTTTTTTTTTTTTTTTT (ssDNA) [30 dT]	11	–
